From patent US20160200830A1 (NANJING LEGEND BIOTECH, published 2016)
Where a chain is given by its changes, count along the chain named.

B1: sdAb A13376 (VHH)
VHH: QVKLEESGGGLVQAGGSLRLSCAASGNVFTIAAMAWYRQAPGKERELVAGITTGGSTNYADSVKGRFTISRDNAQNTMYLQMNSLRPEDTAVYFCNAVTKWAARVGGSAEYEYWGQGTQVTVSS
B2: sdAb A13355 (VHH)
VHH: QVKLEESGGGLVQAGGSLRLSCVASGSGFGINGVIWYRQAPGKQRELVALIKSDGYTNYRESVRGRFTISRDDAKNTVWLQMNALEPEDTGVYYCKTPGVPFGQGTQVTVSS
B3: sdAb A13152 (VHH)
VHH: B2 VHH with K3Q, E5V, S25P, R64K
B4: sdAb A12659 (VHH)
VHH: B2 VHH with Q1E, K3Q, E5V, S7C, R64K, K75R
B5: sdAb A12690 (VHH)
VHH: B2 VHH with K3Q, E5V, A14P, Q44R, R64K
B6: sdAb A12666 (VHH)
VHH: B2 VHH with I31V, R64K
B7: sdAb A12692 (VHH)
VHH: B2 VHH with Q1E, K3Q, E5V, S7C, R64K
B8: sdAb A13154 (VHH)
VHH: B2 VHH with K3Q, E5V, A14P, R64K, N83S
B9: sdAb A69441 (VHH)
VHH: QVKLEESGGGLVQPGGSLRLSCAASGSIFSIKVMGWYRQAPGKQRELVADITSGGSTDYSDSVKGRFTISRDNAKNTVYLQMNSLKPEDTAVYYCNADLGCSGAGSCPDYWGQGTQVTVSS
B10: sdAb A69476 (VHH)
VHH: QVKLEESGGGLVQPGGSLRLSCAASGNVFTIDAMGWYRQAPGKEREVVVGMTNGGKTNYADSVKGRFTISRDNAKNTVSLQMNSLKPEDTAVYYCYARSKLIATINNPYDYWGQGTQVTVSS
B11: sdAb A69449 (VHH)
VHH: QVQLVESGGGVVQAGGSLRLSCVASGSVFSIDAMGWYRQAPGNQRELVAAMTNAGSTNYADSVKGRFTISRDNAENTVYLQMNSLKPEDTAVYYCNARSKLIARINNPYEYWGQGTQVTVSS
notes: Llama sdAb, made in E. coli periplasm, His-tagged, for SPR; also called A60449; not shown: C-terminal histidine tag added by vector pSJF2H
B12: sdAb A69433 (VHH)
VHH: QVKLEESGGGLVQAGGSLRLSCVASGNVFGIDAVGWYRQAPGKQRELVAATTTSGSSTNYADSVKGRFTISRDIAKNTVYLQMDSLKPEDTAVYYCYARPKQATLIRDDYWGQGTQVTVSS
notes: Llama sdAb, made in E. coli periplasm, His-tagged, for SPR; not shown: C-terminal histidine tag added by vector pSJF2H
B13: sdAb A69447 (VHH)
VHH: QVKLEESGGGSVQAGGSLRLSCTGSGSIFPLNDMGWYRQAPGKQRELVATITRGGTTNYADSVKGRFTISRDSNAKNTVYLQMNSLKVEDTAVYYCNMDNRVGGSYWGQGTQVTVSS
notes: as for B12
B14: sdAb A60401 (VHH)
VHH: B1 VHH with A23E, A35G, Y37F, V92A, F94S
notes: as for B12
B15: sdAb A60219 (VHH)
VHH: B2 VHH with K3Q, E5V, R64K
notes: Llama sdAb, made in E. coli periplasm, His-tagged, for SPR; also called A602019; not shown: C-terminal histidine tag added by vector pSJF2H

These binders were tested against T1, human transferrin (human, UniProt P02787 20-698) (assay: phage display panning and phage ELISA).
T1 construct: Immobilized on a CM5 chip by amine coupling (SPR) or coated on a plate (phage ELISA)
Experimental: The llama immune phage display library was panned against transferrin that was conjugated to M-280 beads (Invitrogen). Approximately 3×10¹¹ phages were added to the beads and incubated at 37° C. for 2 hours for antigen binding. After disposal of unbound phages, the beads were washed six times with phosphate buffered saline supplemented with 0.05% Tween 20 (PBST) for round one, and the washes were increased by one for each additional round. Phages were eluted by 10 min incubation with 100 μl 100 mM triethylamine, and the eluate was subsequently neutralized with 200 μl 1 M Tris-HCl (pH 7.5). Phages were amplified as described above, but on a smaller scale. After two rounds of panning, eluted phages were used to infect exponentially growing E. coli TG1. Individual colonies were used in phage enzyme-linked immunosorbent assay (ELISA).
For phage ELISA, a 96-well microliter plate was coated overnight with 2 μg/ml human transferrin and then blocked with 4% […] phosphate buffered saline (MPBS) for 2 hours at 37° C. Phage from individual clones were pre-blocked with 4% MPBS overnight, added to the pre-blocked wells and incubated for 1 hour. Phage ELISA was performed using the GE Healthcare Detection Module Recombinant Phage Antibody System (GE Healthcare, Uppsala, Sweden) and positive phage clones were sequenced.

T1 sequence (P02787 20-698 limits assumed): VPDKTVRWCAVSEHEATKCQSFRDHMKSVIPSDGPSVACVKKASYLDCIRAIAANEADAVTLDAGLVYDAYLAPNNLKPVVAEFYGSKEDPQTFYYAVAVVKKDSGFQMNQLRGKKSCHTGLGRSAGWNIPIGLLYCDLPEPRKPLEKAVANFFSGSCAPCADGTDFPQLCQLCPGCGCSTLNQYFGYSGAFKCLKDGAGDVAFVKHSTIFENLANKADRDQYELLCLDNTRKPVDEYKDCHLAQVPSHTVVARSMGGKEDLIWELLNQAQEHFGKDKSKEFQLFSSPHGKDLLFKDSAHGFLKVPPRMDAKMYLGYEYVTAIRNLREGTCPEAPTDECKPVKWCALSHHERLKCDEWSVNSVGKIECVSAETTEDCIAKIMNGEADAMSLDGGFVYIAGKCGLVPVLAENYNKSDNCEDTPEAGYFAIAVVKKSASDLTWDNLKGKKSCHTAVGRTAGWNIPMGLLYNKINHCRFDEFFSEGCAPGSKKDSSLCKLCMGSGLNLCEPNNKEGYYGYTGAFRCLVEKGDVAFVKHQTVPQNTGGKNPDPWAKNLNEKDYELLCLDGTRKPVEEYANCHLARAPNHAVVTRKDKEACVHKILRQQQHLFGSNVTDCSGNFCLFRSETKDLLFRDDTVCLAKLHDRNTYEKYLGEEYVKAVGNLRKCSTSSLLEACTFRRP

binding result	Binder
binds	B1
binds	B2
binds	B3
binds	B4
binds	B5
binds	B6
binds	B7
binds	B8
binds	B9
binds	B10

What follows are binders tested against T1, human transferrin (assay: SPR, transferrin immobilized, sdAb as analyte).

Kd [nM]	koff [s⁻¹]	kon [M⁻¹ s⁻¹]	Binder
2.03	0.000695	342000	B11
5.76	0.000642	111000	B12
1.03	0.000209	203000	B13

The binders below were run against monkey transferrin (monkey) (assay: SPR, transferrin immobilized, sdAb as analyte).

Kd [nM]	koff [s⁻¹]	kon [M⁻¹ s⁻¹]	Binder
1.12	0.000529	471000	B11
2.4	0.000593	247000	B12
0.25	7.58e-05	304000	B13

These binders were tested against T1, human transferrin (assay: SPR, Biacore T200, transferrin immobilized on CM5 chip, sdAb as analyte).
Experimental: Experiments were performed using a BIAcore T200 optical sensor platform and research grade CM5 sensor chips (GE Healthcare). Human transferrin was immobilized on the sensor chip surface by standard amine coupling. All experiments were carried out in HEPES buffer [10 mM HEPES (pH 7.4), 150 mM NaCl, 3.4 mM EDTA, 0.005% Tween 20] at 25° C. Antibodies were injected at serial dilutions ranging from 0.25 nM to 16 nM at a flow rate of 30 μl/min unless otherwise indicated. The amount of bound analyte after subtraction from the blank control surface is shown as relative response units (RU). The double referenced sensorgrams from each injection series were analyzed for binding kinetics using BIA evaluation software (GE Healthcare). Dissociation constants (KDs) were calculated from the on- and off-rates (kₒₙ and koff, respectively), as determined by global fitting of the experimental data to a 1:1 Langmuir binding model (Chi²<1).

Kd [nM]	koff [s⁻¹]	kon [M⁻¹ s⁻¹]	Binder
0.0671	6.22e-05	927000	B14
0.0131	0.000674	5.14e+07	B15
